Molecular target: full-length c-Jun (Rattus norvegicus (Rat)) (UniProt P17325)
Assay: cell-based or functional assay

IL-6 dependent response of the α2-macroglobulin luciferase reporter gene in HepG2 cells (fold): 30 fold
IL-6 response of the α2-macroglobulin luciferase reporter gene in HepG2 cells with increasing Stat3 and extra c-Jun (fold above background): 4
Substance: wild-type Stat3 (transfected, expression vector pRcCMV) (from UniProt P42227 1-770)

Source: patent US20020197647A1
